Results: patent US20210009686A1 (published 2021)

Biological target: CLDN18.2
Assay: FACS binding, KATO III cells

EC50: 0.67 µg/mL
B1: IMAB362 (antibody, V domains shown)
VH: QVQLQQPGAELVRPGASVKLSCKASGYTFTSYWINWVKQRPGQGLEWIGNIYPSDSYTNYNQKFKDKATLTVDKSSSTAYMQLSSPTSEDSAVYYCTRSWRGNSFDYWGQGTTLTVSS
VL: DIVMTQSPSSLTVTAGEKVTMSCKSSQSLLNSGNQKNYLTWYQQKPGQPPKLLIYWASTRESGVPDRFTGSGSGTDFTLTISSVQAEDLAVYYCQNDYSYPFTFGSGTKLEIKR
